Experimental data from the domain aggregation screens of Martell et al. (2025).

Experiment: soluble fraction after stress (log2 fold change); higher = more stays soluble; pooled small domains, quantitative proteomics
Conditions: stress: pH 4
Summary of the method: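 Aggregation propensity is estimated from the fold change in each domain's soluble amount after acid stress. Pooled small-domain libraries were stressed at pH 4, and higher log2 values mean more stayed soluble.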

Sequence	soluble fraction (log2)
HMTDAEQHEALLFKQVVDGLPQTLRDTFVLSRHAGMTYAEISAHTGTPIKTVESRMAKALELIAQRMR	0.0158
HMQGATVYIKSDDIGKTTNEQGSFNFDKLKKNRYTLEISFIGYETKNLQAYTDRENIVQLNRKS	-0.527
HMDVALEALDESDGAVRLQFSGALQTYLNDSTTAASLEAISKTFRAFYEAAGRPVDTLEVYAAGEPVT	-0.42
HMSERQTGTVKWFNNAKGFGFITMADRPDDIFVHFRAIQGDGYRSLNEGEEVEFSLVEGPKGLQAEEVTK	-1.09
HMTTIHVDPEKISKIIGPGGKTIKKIVEETGAKIDIEEDGRVYIAAVNSEEAAKAIDMINGI	-0.274
HMDFVKGDTVVFIDAFMPDHLMTIHKVQGEGILLDGNHKFALAHLIRHASTVELNAKRRLSLTEQS	-0.685
HMVEELDVQFIKLTVQGDHPWKNKKIRELSIPWDLLFVLIIRGDKSIIPNGKTTIKDGDIVVVSAPEYRG	-1.5
HMSDGDFLQKIAEEILAQFPDKVKEYQKGKKGLIGFFMGELMKRSKGKADPKVATRILEEILSEKNGSS	-0.609
HMIETIIGAEGKVLETIDNFNQKGVVALAGKEWTARSADASIIPEGAKVSVVEISGVKLIVTQN	-0.24
HMIINFDAIRLTTELNKYNRHKAIPNSFFDGTFTILDVRDLYDSLSPKVQKIADTLIEQYNVDVKQ	-1.22
HMVKFGERVKQLRLSAGMTQEQLAERIWVTKAAISNYELSERNPSPETIIKIAGVFGVTTDYLLGLED	-0.434
HMQLDDDQKEELILKLIDSLDTTKKGAPLTELAREAAKSNIGESELEEITTSLLDKGLVYEPTIGKMKR	0.0111
HMQNAMQKELIDAFQKAYPDLDITKIELVYGTYYEVEAMNSTTEFTYRYDQNSKTFILAEQDNADP	-0.0395
HMRKDYTVLYSAVNAEEATEIVSKLQESGVAYQYKDNGDVLVDKKQVDKVRAQLAQEGYPKS	-0.204
HMAGWIPVEERLPDDLTNPITRDAYVYPVTVDLGDVTDIRYYSFWRGHWYNQGPETMDDLVIAWMLLPEPY	-0.178
HMDRKFFYEDQYQDYLGEELKVSFFDTDNKKTVRGTLSEVTPHGIKINLEQETQEIPFSSIIQANLI	-0.44
HMGPAAGVVEKYNLAHLSTGEMIRKEIAEGSDFGKMAAGIINKGELLSDEFVVALIENSIEHHKNVDGFLF	-0.22
HMQNPYDTLGVSRDSTDAEIKKAYRKLAMEHHPDKGGDSQRFAEINNAYDNIKDMSSRQNFENDPSNFQ	0.186
HMPDLSYVDEVLNRYKGHKGTLITVLQQVQAHKGYLEKEALERVARSMGVPTARIYGVVTFYAQFR	0.099
HMLKNKSTGNINETKAILELALNHSHFKVFDNRDMTVTFKNLATQFTTMQRILVQMFFPLPAGVELIIE	0.268
HMLPVLEIGTMIRIIRQPHFGTIARVVALPEELTKVESETLVRILDAEFDDGTRVRIPRANVEVIE	-1.37
HMPGRKTTFEERLSIIEDLIKHDVNYSWAVDKYHVSYQQVYGWYQKYRKSGNDPQSLRDRRGK	≥ 0.43
HMLRQRVFRIIQNNINSKNYFVYTKQILAELAGISMRSLNRTLSELQNDRLIIVDSGTIRLFT	-0.824
HMFFFILNKGAKSGGEITHAVLNGSIVSKPAGWDAFHGLVLAKEKLSSEEIQRQMKELGVEMEIVPL	-1.18
HMRAFTPSEAQVAHARRVMEAFWQHQREGHGAFALDGKMVDAPIVKAAARVLARAGLQDPNHPIHLA	0.0106
HMNIILFLDELHRLLSDLPPEERNQAIKYYEDYFEDAGPENEQAILKELGSPQELANQIKATT	-1.36

Sequence	soluble fraction (log2)
HMGLAGVQSDVKVSFDGDLLVVTSDIARSFNLFAVDGRLIRSVNLIAGRNEIRGLERGFYLAEKQKIFV	-1.36
HMKRSVIVTAERAEVRQKADEGSALVFEAEKNVSLEYLEAAPGGWVKVRHLDGQSGFVRGNQI	-0.901
HMGKTKFTEMSALELKAYAELNNNSMHWVYRMLYIGGGDVGFRKGMKELGYSGKFIWMTLERLKKS	-0.583
HMTSVPGTVVTNANLRGGPGTNYPIVGKAPAGTTVNVVESTADRTWYYLDTGSWIAAFLVKLS	-0.229
HMIAVIKPSATAEQKAGLVDWIRGQGIDVHISEGHDYTVLGLIGDTSKIDMDLIASLDIVDSVKRVA	-0.168
HMGGNKILTWKTDAATTRNQVPINERKEGLEISYKNEERNWVAEKYVGTSFSDDKWGVDYNWNQD	-0.559
HMQISDTTELSTLITKVLSEQSDALVDFKNPKKQKQVIGYLTGQVLRASQGKANPGLVRSLLEEQLSALDS	0.0677
HMSMPTITLQHYKRGSHYYASIIETFRDPVTRKNSSRTLEALGDISEKMKEDPNYLQSLKDRVKALRSD	0.156
HMVGIAEAMKHIADEDYGDLSAIFKQIFSDTDGGRNFSDAIRTQMRSTDSSGLRKVLSTLIMSIEE	-0.854
HMRTANREKRIEASVKMMKAGYPVGYIIARVFMYEGWEEDYRQLLIYLSEKIPKDVSNPITFEVIS	-0.317
HMTVTTDITQYFLQENGLLNGPNARQLRQKIGETLNIGYTNGKQLLKRAQQFGLTRDQILTALKK	0.278
HMLDFGQEDSEAVSEIILVLGRYWMDFSHKKYPEAEGSALRHKGISHIFTVLKPYLTSATAQLIEQRLQQ	-0.398
HMISFLNFVRKEIDASQLKDSTKQNHLTTIGLLQSFKPSIEFKDLNYNFITSFEKYLYDAGYQM	0.105
HMTNVLSEQESKLLERMNKAGLNAEITVKKAAQILNLSESAARNVLNRLVGKGYLTVDTSRLPFLFQR	0.122
HMGGYLIGDVAQMVGLSRDALRFYEKKGIIRADKKENGYRYYSEDDIYRLMYILYHRKMNTSLEEIGGLMS	-0.478
HMGVKIELNENEQAIFAAMQKQVEAVLPDLRAQFADMSNKAWDNSVKTLTKNNLLKVSKEAEILFIRL	-1.09
HMFIPMTDAQRHLFANKLAKLPELSEYSRGTESYEDFAIRIADMLLEPPKFRMFYPLLEQLGF	-1.19
HMPEKNQITHLIRLIDDRDEFVRKRVREQLIKLGEDAIPFLEMAAKTENLEIQRIASEIIQAIIPRQ	-0.282
HMTEKMILKWKEALERMNDDFTTKDWLNVVIHEMGKSERTAYGWLSDMKRSGIIKDLGYGSWLKVLE	-0.2
HMNSVSARRSAAITAISTGRIHSQEDLVQALKKAGYPVTQATASRDIEEIGAVRIRNQKGEMVYAIS	0.321
HMKSAYADVAIAKVQDYVNVRAENNEDSEVLGKLYNNSAATVLETTDDGWYKISSGSVTGYVKSEYVVVG	-1.04
HMSEIVEEQNTKLKQAVSKLSKRQQEVLYLKFEEGLDYEQISKIMDLKYQSVRNLVSTAIIKIKEH	0.0707
HMIHANGLTDRQEMILEFIRSYISENNYPPSVREIGKGVGLASSASVHNNMKKLASLGFLNWDTD	-0.194
HMAEAPGSVELLAERLRPWWEIHGGEWGSKTKALRFLFGDQAPVAGSYWRALEAAIAQIESTT	-0.108
HMINIGANIRAIRKQKNIKQVDLVRLLQLEGVEITRETLVKIESGVQHIKASQLRGIRDALGTTYDELL	-0.863
HMKKVSVKPILELRAAGISMRKIETLMHVSRHTISAIYKAADAYSISWDNVKDFDEDKIYEMLFPPTP	≥ 0.43

Sequence	soluble fraction (log2)
HMTNALDMMKTMDSDAYTKYQKISKESSNEDRQLNELKYITNWYAGAVKKNPSMVDDYEKQKEADS	0.162
HMLSDSDTLRDLYLSEQIWNVGDLIRVKGKNDDTHPSWEIIRRGTNYITAIDENYKSHKVWLHDIDI	-1.4
HMINITALVKQLGGVDISKFNSAFKLLQQGKPLNTISNKVMADTFVALMKNSDEALNTKFRAAFKKI	0.0515
HMKAFTKKELQDLVLNIFRASPTTNYNYKQLYKLIRGKDPEIKTLIIAVLLGLEKNGSILQMRPGKYKFS	-0.268
HMSLSDDIAQTLRQLGFDRDVSETLANDVLPAMPTRQDVIDLLGTLGIEKHVAADFANFVVLN	-1.08
HMRPTAWEQVSRHIDQHGSIGNTEVRKAMETENVLAASKQIKKWLEQGLLIILNPTAGTRARRYSKPNM	-0.0247
HMTLDDSFYQKADEIIANHTKEERSLIPIIQDIQAEYRYLPPELLTYVAKEIGITDARAYSVASFYENFS	-1.21
HMKTIQVGSTVRVNQGAKTYSGGGLASFVYKRNHKVSQLQGDRAVITYEGTVVAAVHVSDLSLIH	-0.801
HMDATFKVRVSVPDLNIRSGPGTNYAATGRFTGVGVFTITAVQSGQGSSSGWGKLKSGAGWIALDYAKR	0.341
HMGETWYEILEISSDATTEEIRQAYFEQARQYHPDTNPGELAREWFYQVQEAYETLSDPDRRRQYDESIKG	-2.16
HMLPNLWVMGPGDHLWRVAEVAMTKHLGRPVANHEIDGYWRRLVALNRESLIDPDNPDLVFAGQVIELPPF	-2.2
HMSDPFSPTTTLKNRAKSVLSVDSFEDFKLFIKKMWQEKKEGVYQNPNVETWKDWDNISVKDAKILISLI	-0.327
HMRTMFGQRLRLARKRAGLSMQALADRVTPSVSAQAISKYEADQMMPSSSVLVGLGKALGVSLDFLVGGQ	-0.238
HMRSVEVAAEPGMVLEDRQTGFVGAVVAVEKSGGTHLVVLEDRHGLRRGFPLGPGFWLEGRPVVLAPPP	-0.141
HMAPSPEGAAILRESVESVARDQVDRVALTMTARGYTTAEIAAALMVDRSTISRRLYAMRDRYHAQQDNAQ	-0.666
HMDDSSLFGRHTGIGFIVDDIDSGYQTLLAKGVSFEMPPTEQPWGGILALMKDPDGNIFYLD	-0.488
HMSAAYVYVTGTRVNQRDGPSTFDRVMGVLVEGTRVQLLRDQGQWAQIRSDLGTGWLSSGFLSRNG	0.0158
HMRKIFPFNPNFITDQRGYFLGMSTSEIDRLHHFRAANKWIQSAQEFQVVTKVSNAWLSEFSPYFNFP	0.298
HMLTIQNYFNQVKNIDWEQVPAALSKGHQLVEGASQNNWSAYHSNANIQRVVEAYFQKLNDYLEKN	-0.168
HMGGTFLVRILDPALNIRAQPSLTARINGVIRDKSVYTIVATSFEPKTQITWGKLKSGAGWISIGSKYVKK	0.0406
HMRMDKHLWLSLLRLINEGSAEELQTKKDELLQSLERLRITRGPVRGDVLRVVRLIDEELVSRLHLDQR	-0.697
HMNVAVPTPADKRKVRVMKADINAKLRVNDANGAYAVYEELKEWVTLKGFTEWNDDLSKLSETMGSMKRKV	-0.0387
HMGSLKISNPVKDTLWIQGVDGLKSIEIYSSTGQLVKTILGNQGDVSSLPKGVYFLKINTPSESLTAKIIK	≥ 0.43
HMKQPNFTVIETKILELLFQKDLSSREMQEILKISKDNLIFALQNLLEQEKIVLQTSNTYTVN	-2.02
